Measured values published in US20050058639A1 (AstraZeneca / MedImmune, published 2005).

T1: recombinant human MCP-2 (human, UniProt P80075 24-99)
T1 construct: also called rhMCP-2
T1 sequence (looked up): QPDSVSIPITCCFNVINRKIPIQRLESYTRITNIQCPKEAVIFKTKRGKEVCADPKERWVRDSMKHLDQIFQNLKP

T2: human MIP-1-alpha (human, UniProt P10147 24-92, limits assumed)
T2 construct: also called hMIP-1-alpha
T2 sequence (looked up): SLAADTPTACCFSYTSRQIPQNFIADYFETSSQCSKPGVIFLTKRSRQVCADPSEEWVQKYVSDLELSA

T3: human GRO/MGSA (human, UniProt P09341 35-107)
T3 construct: also called hGRO/MGSA; GRO-alpha
T3 sequence (looked up): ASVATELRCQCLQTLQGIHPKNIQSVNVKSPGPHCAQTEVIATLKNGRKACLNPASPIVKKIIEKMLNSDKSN

T4: human RANTES (human, UniProt P13501 24-91)
T4 construct: also called hRANTES
T4 sequence (looked up): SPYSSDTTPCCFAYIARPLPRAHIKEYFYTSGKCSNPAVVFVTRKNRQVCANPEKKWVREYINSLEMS


What was measured:
[1] = target: T5, recombinant mouse JE/MCP-1 (mouse, UniProt P10148 24-148); assay: ELISA, coated antigen
T5 construct: also called rmJE/MCP-1
Procedure: (§1) Determining cross-reactivity of anti-MCP-1 antibodies with other chemokines. ELISA plates (Fisher Cat. No. 12-565-136) were coated with 50 μl/well of MCP-1, MCP-2, MCP-3, MCP-4, RANTES, GRO-alpha, MIP-1 alpha, eotaxin, rat MCP-1 and mouse JE (2 μg/ml) in coating buffer (0.1 M carbonate buffer, pH 9.6, NaHCO₃ 8.4 g/L, then incubated at 4° C. overnight. After incubation, the plates were washed with washing buffer (0.05% Tween 20 in PBS) three times. 200 μL/well blocking buffer (0.5% BSA, 0.1% Tween 20, 0.01% Thimerosal in 1×PBS) were added and the plates incubated at room temperature for 1 hour. After incubation, the plates were washed with washing buffer three times. 50 μL/well of hybridoma supernatants, and positive and negative controls (positive control was anti-MCP-1 antibody purchased from R&D Sciences, and negative control was an antibody to Keyhole Limpet Hemocyanin produced at Abgenix) were added and the plates incubated at room temperature for 2 hours. After incubation, the plates were washed three times with washing buffer. […] After incubation, the plates were washed three times with washing buffer and 100 μL/well of TMB (BioFX Lab. Cat. #TMSK-0 100-01) was added and the plates allowed to develop for about 10 minutes.

recombinant human MCP-2 = target: T1, recombinant human MCP-2; assay: ELISA, coated antigen
Procedure: as §1

recombinant human MCP-4 = target: T6, recombinant human MCP-4 (human, UniProt Q99616 24-98, limits assumed); assay: ELISA, coated antigen
T6 construct: also called rhMCP-4
Procedure: as §1

recombinant human MCP-3 = target: T7, recombinant human MCP-3 (human, UniProt P80098 24-99); assay: ELISA, coated antigen
T7 construct: also called rhMCP-3
Procedure: as §1

human eotaxin = target: T8, human eotaxin (human, UniProt P51671 24-97); assay: ELISA, coated antigen
T8 construct: also called hEotaxin
Procedure: as §1

human MIP-1-alpha = target: T2, human MIP-1-alpha; assay: ELISA, coated antigen
Procedure: as §1

human GRO/MGSA = target: T3, human GRO/MGSA; assay: ELISA, coated antigen
Procedure: as §1

human RANTES = target: T4, human RANTES; assay: ELISA, coated antigen
Procedure: as §1

rat MCP-1 = rat MCP-1 (rat, UniProt P14844 24-148); assay: ELISA, coated antigen
Procedure: as §1

[2] = target: T9, human monocyte chemo-attractant protein-1 (MCP-1) (human, UniProt P13500 24-99); assay: ELISA, hybridoma supernatant on coated MCP-1; ELISA, hybridoma supernatant on plate-coated non-reduced MCP-1 (2 ug/mL)
T9 construct: 76-residue recombinant protein from E. coli, bought (PeproTech); also called hMCP-1(MCAF); human MCP-1
Procedure: (§2) Selection of candidate antibodies for ELISA. After 14 days of culture, hybridoma supernatants were screened for MCP-1-specific monoclonal antibodies. The ELISA plates (Fisher, Cat. No. 12-565-136) were coated with 50 μl/well of MCP-1 (2 μg/mL) in Coating Buffer (0.1 M Carbonate Buffer, pH 9.6, NaHCO₃8.4 g/L), then incubated at 4° C. overnight. After incubation, the plates were washed with Washing Buffer (0.05% Tween 20 in PBS) three times. 200 μl/well Blocking Buffer (0.5% BSA, 0.1% Tween 20, 0.01% Thimerosal in 1× PBS) were added and the plates incubated at room temperature for 1 hour. After incubation, the plates were washed with Washing Buffer three times. 50 μL/well of hybridoma supernatants, and positive and negative controls were added and the plates incubated at room temperature for 2 hours.
(§3) The positive control used throughout was XMG2 MCP-1 Group 1, footpad N160-7 and the negative control was XMG2 KLH Group 1, footpad L627-6. After incubation, the plates were washed three times with Washing Buffer. […] In the secondary screen, three sets of samples (positives in first screening) were screened, one set for hIgG detection, one set for hKappa detection, and one set for hlambda detection. After incubation, the plates were washed three times with Washing Buffer. 100 μL/well of TMB (BioFX Lab. Cat. #TMSK-0100-01) were added and the plates allowed to develop for about 10 minutes (until negative control wells barely started to show color), then 50 μL/well stop solution (TMB Stop Solution (BioFX Lab. Cat. #STPR-0100-01) were added and the plates read on an ELISA plate reader at wavelength 450 nm. The OD readings from the positive wells are presented in Table 9.

[3] = target: T9, human monocyte chemo-attractant …; assay: cell-based or functional assay
[4] = target: T9, human monocyte chemo-attractant …; assay: Biacore, mAb immobilized, MCP-1 injected; Biacore, 25 C, native MCP-1 injected over immobilized mAb
Procedure: Determination of anti-MCP-1 antibody affinity using Biacore analysis. The antibody/MCP-1 interaction analysis was performed at 25° C. using two CM5 chips docked in Biacore 3000 optical biosensors. Individual flow cells on each chip were activated with a 7-minute injection of NHS/EDC, carbohydrazide was coupled through the NHS ester using a 7-minute injection, and the residual activated groups were blocked with a 7-minute injection of ethanolamine. The monosaccharide residues of each antibody were oxidized using 1 mM sodium metaperiodate in 100 mM sodium acetate, pH 5.5 at 4° C. for 30 minutes. The oxidized antibody was desalted into 100 mM sodium acetate, pH 5.0, to couple the antibody to the carbohydrazide-modified surface. The mAb surfaces were stabilized by reducing the hydrazone bond with 0.1 M sodium cyanoborohydride. The antigen/antibody interaction was tested by injecting 0, 0.049, 0.15, 0.4, 1.3, 4 and 12 nM of MCP-1 (Peprotech, N.J.) in running buffer (10 mM HEPES, 150 mM NaCl, 0.005% surfactant, 200 μg/ml BSA, pH 7.4). The surfaces were regenerated with a 12-second pulse of 15 mM H₃PO₄. The antigen/antibody interaction was tested by injecting duplicate antigen samples diluted in running buffer (10 mM HEPES, […], 0.005% surfactant, 200 μg/mL BSA, pH 7.4), in a 300-fold concentration range. The surfaces were regenerated with a 12-second pulse of 15 mM H₃PO₄. To determine the kinetics of each interaction, the data sets were fit globally to a 1:1 interaction model that included a parameter for mass transport.

[5] = target: T9, human monocyte chemo-attractant …; assay: ELISA, coated antigen
Procedure: as §1

[6] = target: T9, human monocyte chemo-attractant …; assay: ELISA, hybridoma supernatant on coated MCP-1
Procedure: as §2, §3

[7] = target: T9, human monocyte chemo-attractant …; assay: ELISA, coated antigen; ELISA, purified clone 1:50 on coated hMCP-1 (2 ug/mL), cross-reactivity panel
Procedure: as §1

T7 sequence (P80098 24-99 limits assumed): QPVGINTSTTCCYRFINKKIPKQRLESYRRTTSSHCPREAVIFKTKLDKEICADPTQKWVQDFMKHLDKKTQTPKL
T8 sequence (P51671 24-97 limits assumed): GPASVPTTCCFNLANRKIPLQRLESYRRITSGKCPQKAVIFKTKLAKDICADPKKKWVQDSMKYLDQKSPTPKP
T9 sequence (P13500 24-99): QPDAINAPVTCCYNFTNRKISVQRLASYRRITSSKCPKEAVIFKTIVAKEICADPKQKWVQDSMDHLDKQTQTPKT
Sequence of rat MCP-1 (P14844 24-148 limits assumed): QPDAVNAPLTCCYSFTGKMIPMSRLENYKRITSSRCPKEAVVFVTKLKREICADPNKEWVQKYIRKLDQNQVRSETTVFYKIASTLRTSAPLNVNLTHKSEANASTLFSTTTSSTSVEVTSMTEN
T5 sequence (P10148 24-148 limits assumed): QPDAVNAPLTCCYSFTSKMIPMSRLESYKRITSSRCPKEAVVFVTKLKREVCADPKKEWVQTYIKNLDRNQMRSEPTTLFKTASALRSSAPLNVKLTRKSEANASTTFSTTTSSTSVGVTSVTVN
T6 sequence (Q99616 24-98 limits assumed): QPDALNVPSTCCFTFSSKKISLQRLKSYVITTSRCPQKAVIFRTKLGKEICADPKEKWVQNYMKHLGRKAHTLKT

| Binder | ELISA OD [1] [OD450] | ELISA OD (recombinant human MCP-2) [OD450] | ELISA OD (recombinant human MCP-4) [OD450] | ELISA OD (recombinant human MCP-3) [OD450] | ELISA OD (human eotaxin) [OD450] | ELISA OD (human MIP-1-alpha) [OD450] | ELISA OD (human GRO/MGSA) [OD450] | ELISA OD (human RANTES) [OD450] | ELISA OD (rat MCP-1) [OD450] | ELISA OD-MCP-1 [2] [OD450] | IC50 Ca++ Flux [3] [µg/mL] | IC50 Chemotaxis [3] [µg/mL] | Kd [4] [nM] | ELISA OD [5] [OD450] | ELISA OD-MCP-1 [6] [OD450] | ELISA OD [7] [OD450] |
| --- | --- | --- | --- | --- | --- | --- | --- | --- | --- | --- | --- | --- | --- | --- | --- | --- |
| anti-MCP-1 mAb 2.3.1 (antibody, V domains shown) VH: QVQLVQSGAEVKKPGASVKVSCKVSGYTLTELSMHWVRQAPGKGLEWMGGFDPEDDETIYAQKFQGRVTMTEDTSTHTAYMELSSLRSEDTAVYYCATHDFWSAYFYYWGQGTLVTVSS VL: not shown | 0.054 | 0.052 | 0.064 | 0.059 | 0.045 | 0.067 | 0.062 | 0.055 | 0.058 | 3.88 | 0.14 | 0.58 | 0.096 |  |  |  |
| anti-MCP-1 mAb 4.8.1 (antibody, V domains shown) VH: QVQLVQSGAEVKKPGASVKVSCKVSGYTLTELSMHWVRQAPGKGLEWMGGFDPEDGETIYAQKFQGRVTMTEDTSTDTAYMELSSLRTEDTAVYYCTTDDFWSGYFDYWGQGTLVTVSS VL: not shown | 0.042 | 0.041 | 0.039 | 0.043 | 0.043 | 0.041 | 0.042 | 0.044 | 0.091 |  | 0.22 | 0.29 |  | 1.14 | 4 |  |
| anti-MCP-1 mAb 3.7.1 (antibody, human IgG2, kappa, V domains shown, also called 3.7.2) VH: QVQLVQSGAEVKKPGASVKVSCKVSGYTLTELSMHWVRQTPGKGLEWMGGFDPEDGETIYAQKFQDRVTMTEDTSTDTAYMELSSLRSEDTAVYYCATNDFWTGYYDYWGQGTLVTVSS VL: not shown | 0.046 | 0.043 | 0.048 | 0.048 | 0.043 | 0.049 | 0.045 | 0.067 | 0.048 | 4 | 0.094 | 0.98 | 0.0048 |  |  | 1.28 |
| anti-MCP-1 mAb 5.1 (antibody, V domains shown) VH: EQSGGGVVQPGRSLRLSCAASGFTFSSYGMHWVRQAPGKGLEWVAVIWYDGNNKYYADSVKGRFTISRDTSKNTLYLQMNSLRAEDTAVYYCARDSSSYYYYGMDVWGQGTTVTVSS VL: NFMLTQPHSVSESPGKTVTISCTRSSGSIASNYVQWFQQRPGSSPTTVIYEDDQRPSGVPDRFCGSIDSSSNSASLTISGLRTEDEADYYCQSYDSSNHVVFGGGTKLTVLG | 0.044 | 0.051 | 0.043 | 0.05 | 0.042 | 0.043 | 0.044 | 0.043 | 0.054 |  | 3.5 | 1.3 |  | 0.521 | 4 |  |
